Test results reported in paper PMC4109008.

Molecular target: zipper-mEos3.2C (split site 164E)
Experiment: split reporter (BiFC, NanoBiT); BiFC signal of E. coli cultures read in a plate reader with 480 nm excitation at different culture durations, normalised to OD600; zippers against mutated zippers

complementation efficiency (intensity ratio of the specific BiFC signal by leucine zippers to the nonspecific signal via mutated leucine zippers): < 12
Substance: mEos3.2N-Zipper (split site 164E) (peptide)
